The results in this text go back to PMC2959088.

The test concerns the target human cathepsin L (human). Kind of test: enzyme inhibition assay (residual activity on the fluorogenic substrate Z-Phe-Arg-MCA); cathepsin B or L (0.3 nM) incubated 5 min at 37°C with varied inhibitor in 100 mM sodium acetate pH 5.5, 2.5 mM DTT; substrate 0.01 mM; triplicate; Ki(app) by non linear regression (GraFit), Ki by Morrison's procedure.

B1: Oryzacystatin-1 (natural protein)
chain: MSSDGGPVLGGVEPVGNENDLHLVDLARFAVTEHNKKANSLLEFEKLVSVKQQVVAGTLYYFTIEVKEGDAKKLYEAKVWEKPWMDFKELQEFKPVDASANA
For B1, the Ki stood at 0.73 nM.
